We go through one molecule from article PMC3287177.

Common to all, as to assay: EMSA
The target in data set [1] is T1, Lin28 119-180 (NCp7-like domain) (Mus musculus, UniProt Q8K3Y3 119-180).
T1 sequence: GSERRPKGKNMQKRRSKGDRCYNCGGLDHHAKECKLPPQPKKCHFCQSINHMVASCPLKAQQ

The target of another data set is T2, Lin28 39-112 (CSD) (Mus musculus, UniProt Q8K3Y3 39-112).
T2 sequence: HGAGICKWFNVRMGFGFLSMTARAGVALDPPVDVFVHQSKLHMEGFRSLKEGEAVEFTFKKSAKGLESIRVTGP

In the next data set the target is T3, Lin28 1-209 (Mus musculus, UniProt Q8K3Y3 1-209).
T3 sequence: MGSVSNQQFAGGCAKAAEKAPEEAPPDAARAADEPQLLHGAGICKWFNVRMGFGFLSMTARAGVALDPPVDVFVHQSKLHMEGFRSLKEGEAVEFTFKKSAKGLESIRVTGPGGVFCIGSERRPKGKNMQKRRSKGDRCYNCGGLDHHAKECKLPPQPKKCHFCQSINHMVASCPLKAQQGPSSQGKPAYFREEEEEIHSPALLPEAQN

B1: pre-let-7g (structured_RNA)
RNA: UGAGGUAGUAGUUUGUACAGUUUGAGGGUCUAUGAUACCACCCGGUACAGGAGAUAACUGUACAGGCCACUGCCUUGCC
Regarding B1, the values for the Kd (in data set [1]; with Lin28 39-112 (CSD); with Lin28 1-209) were 0.6 ± 0.1 nM, 41 ± 10 nM and 0.15 ± 0.04 nM, respectively.
